Positions count from the first letter of the chain named. Names may count otherwise.
T1: FcγRIIb extracellular domain with C-terminal His tag (human, UniProt P31994 43-217)
T1 construct: extracellular domain; also called FcgRIIb; FcγRIIb extracellular region
T1 sequence (looked up): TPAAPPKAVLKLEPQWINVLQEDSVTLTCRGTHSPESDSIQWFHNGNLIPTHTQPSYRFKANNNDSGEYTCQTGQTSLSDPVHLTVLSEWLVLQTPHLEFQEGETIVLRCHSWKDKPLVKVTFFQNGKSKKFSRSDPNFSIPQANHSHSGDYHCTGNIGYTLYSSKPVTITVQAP

T2: FcγRIIa type R extracellular domain with C-terminal His tag (human, UniProt P12318 34-217)
T2 construct: extracellular domain; also called FcγRIIa R; FcγRIIaR
T2 sequence (looked up): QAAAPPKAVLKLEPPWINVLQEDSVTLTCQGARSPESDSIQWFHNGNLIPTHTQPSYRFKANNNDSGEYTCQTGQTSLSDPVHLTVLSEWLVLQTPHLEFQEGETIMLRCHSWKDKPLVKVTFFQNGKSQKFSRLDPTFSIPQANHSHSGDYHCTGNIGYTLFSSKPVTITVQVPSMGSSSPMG

T3: FcγRIIa type R extracellular domain with C-terminal His tag (human, UniProt P12318 34-217)
T3 chain: T2 sequence (looked up)

T4: FcγRIIb extracellular domain with C-terminal His tag (human, UniProt P31994 43-217)
T4 construct: extracellular domain; also called FcRIIb; FcgRIIb; not shown: His tag at the C terminus
T4 sequence (looked up): T1 sequence (looked up)

B1: IL6R-BF209/IL6R-L (antibody, human IgG1, kappa)
heavy: QVQLQESGPGLVKPSETLSLTCAVSGHSISHDHAWSWVRQPPGEGLEWIGFISYSGITNYNPSLQGRVTISRDNSKNTLYLQMNSLRAEDTAVYYCARSLARTTAMDYWGEGTLVTVSSASTKGPSVFPLAPSSKSTSGGTAALGCLVKDYFPEPVTVSWNSGALTSGVHTFPAVLQSSGLYSLSSVVTVPSSSLGTQTYICNVNHKPSNTKVDKKVEPKSCDKTHTCPPCPAPELLGDDSVFLFPPKPKDTLMISRTPEVTCVVVDVSDEDGEVKFNWYVDGVEVHNAKTKPREEQYNSTYRVVSVLTVLHQDWLNGKEYKCKVSNAALPRPIEKTISKAKGQPREPQVYTLPPSRDELTKNQVSLTCLVKGFYPSDIAVEWESNGQPENNYKTTPPVLDSDGSFFLYSKLTVDKSRWQQGNVFSCSVMHEALHNHYTQESLSLSP
light: not shown
notes: Anti-IL-6 receptor IgG1 Fc variant
B2: IL6R-BF212/IL6R-L (antibody, human IgG1, kappa)
heavy: B1 heavy with E235D, D239G, Y298D, A328K
light: not shown
notes: Anti-IL-6 receptor IgG1 Fc variant; 'B233D' is read as E233D
B3: IL6R-PD042/IL6R-L (antibody, human IgG1, kappa)
heavy: B1 heavy with L236W, D239G, M254Y, D270H, G273P, A328K, R332A, N436Y, E441K
light: not shown
notes: H chain: IL6R-F11 with P238D/L234W (EU numbering); also called P238D/L234W; copies: 2 + 2
B4: IL6R-PD079/IL6R-L (antibody, human IgG1, kappa)
heavy: B1 heavy with D239A, M254Y, D270H, G273P, A328K, R332A, N436Y, E441K
light: not shown
notes: H chain: IL6R-F11 with P238D/G237A (EU numbering); also called P238D/G237A; copies: 2 + 2
B5: IL6R-PD082/IL6R-L (antibody, human IgG1, kappa)
heavy: B1 heavy with D239F, M254Y, D270H, G273P, A328K, R332A, N436Y, E441K
light: not shown
notes: H chain: IL6R-F11 with P238D/G237F (EU numbering); also called P238D/G237F; copies: 2 + 2
B6: IL6R-PD094/IL6R-L (antibody, human IgG1, kappa)
heavy: B1 heavy with D239W, M254Y, D270H, G273P, A328K, R332A, N436Y, E441K
light: not shown
notes: H chain: IL6R-F11 with P238D/G237W (EU numbering); also called P238D/G237W; copies: 2 + 2
B7: IL6R-PD095/IL6R-L (antibody, human IgG1, kappa)
heavy: B1 heavy with D239Y, M254Y, D270H, G273P, A328K, R332A, N436Y, E441K
light: not shown
notes: H chain: IL6R-F11 with P238D/G237Y (EU numbering); also called P238D/G237Y; copies: 2 + 2
B8: IL6R-PD081/IL6R-L (antibody, human IgG1, kappa)
heavy: B1 heavy with D239E, M254Y, D270H, G273P, A328K, R332A, N436Y, E441K
light: not shown
notes: H chain: IL6R-F11 with P238D/G237E (EU numbering); also called P238D/G237E; copies: 2 + 2
B9: IL6R-PD087/IL6R-L (antibody, human IgG1, kappa)
heavy: B1 heavy with D239M, M254Y, D270H, G273P, A328K, R332A, N436Y, E441K
light: not shown
notes: H chain: IL6R-F11 with P238D/G237M (EU numbering); also called P238D/G237M; copies: 2 + 2
B10: IL6R-PD043/IL6R-L (antibody, human IgG1, kappa)
heavy: B1 heavy with L236Y, D239G, M254Y, D270H, G273P, A328K, R332A, N436Y, E441K
light: not shown
notes: H chain: IL6R-F11 with P238D/L234Y (EU numbering); also called P238D/L234Y; copies: 2 + 2
B11: IL6R-PD080/IL6R-L (antibody, human IgG1, kappa)
heavy: B1 heavy with M254Y, D270H, G273P, A328K, R332A, N436Y, E441K
light: not shown
notes: H chain: IL6R-F11 with P238D/G237D (EU numbering); also called P238D/G237D; copies: 2 + 2
B12: IL6R-BF084/IL6R-L (antibody, human IgG1, kappa)
heavy: B1 heavy with D239G, D270H, G273P, V325M, A328K, R332K
light: not shown
notes: alteration printed: 9238D/Y325M/A330K; copies: 2 + 2
B13: IL6R-BF180/IL6R-L (antibody, human IgG1, kappa)
heavy: B1 heavy with D270H, A328K, R332K
light: not shown
notes: alteration printed: G237D/P238D/P271G/A330K; copies: 2 + 2
B14: IL6R-BF196/IL6R-L (antibody, human IgG1, kappa)
heavy: B1 heavy with L236Y, D239G, R332K
light: not shown
notes: alteration printed: L234Y/P236D/H258D/P271G/K326A/A330K; copies: 2 + 2
B15: IL6R-2B253/IL6R-L (antibody, human IgG1, kappa)
heavy: B1 heavy with E235D, D239G, D270H, G273P, V325M, A328K, R332A
light: not shown
notes: alteration printed: B233D/P238D/V323M; copies: 2 + 2
B16: IL6R-BF132/IL6R-L (antibody, human IgG1, kappa)
heavy: B1 heavy with E235D, D239G, D270H, G273P, R332K
light: not shown
notes: alteration printed: B233D/P236D/K326A/A330K; copies: 2 + 2
B17: IL6R-BF206/IL6R-L (antibody, human IgG1, kappa)
heavy: B1 heavy with E235D, D239G, D270H, A328K
light: not shown
notes: alteration printed: BB233D/P238D/P271G/A330R; copies: 2 + 2
B18: IL6R-BF205/IL6R-L (antibody, human IgG1, kappa)
heavy: B1 heavy with E235D, D239G, D270H, Y298D, A328K
light: not shown
notes: alteration printed: B233D/P298D/P271G/Y296D/A330R; copies: 2 + 2
B19: IL6R-BF195/IL6R-L (antibody, human IgG1, kappa)
heavy: B1 heavy with E235D, L236Y, Y298D, R332K
light: not shown
notes: copies: 2 + 2

These binders were tested against FcγRIIa type R extracellular domain with C-terminal His tag (human, UniProt P12318 34-217) (assay: SPR (Biacore), antibody captured on chip, FcγR extracellular domain as analyte).
Text: (§1) In the table, SEQ ID NO refers to the SEQ ID NO of the H chain of the evaluated variant, and alteration refers to the alteration introduced into IL6R-B3 (SEQ ID NO: 40). […] Furthermore, KD(IIaR)/KD(IIb) and KD(IIaH)/KD(IIb) in the table respectively represent the value obtained by dividing the KD value of each variant for FcγRIIaR by the KD value of each variant for FcγRIIb, and the value obtained by dividing the KD value of each variant for FcγRIIaH by the KD value of each variant for FcγRIIb. KD(IIb) of the parent polypeptide/KD(IIb) of the altered polypeptide refers to the value obtained by dividing the KD value of the parent polypeptide for FcγRIIb by the KD value of each variant for FcγRIIb.
(§2) Kinetic analyses for calculating the KD values of each altered antibody for FcγR were performed according to the following method. First, antibodies of interest were captured onto the above-mentioned sensor chips, and an Fcγ receptor diluted with the running buffer was allowed to interact. The Biacore™ Evaluation Software was used to globally fit the measured results to the obtained sensorgram using the 1:1 Langmuir binding model, and the association rate constant ka (L/mol/s) and the dissociation rate constant kd (1/s) were calculated; and from those values the dissociation constants KD (mol/L) were calculated.

Row | Kd [µM] | Binder
1 | 12 | B1
2 | 0.035 | B2

What follows are binders tested against T1, FcγRIIb extracellular domain with … (assay: SPR (Biacore), Reference Example 2).
Text: (§3) Furthermore, KD(IIaR)/KD(IIb) and KD(IIaH)/KD(IIb) in the table respectively show the value obtained by dividing the KD value of each variant for FcγRIIaR by the KD value of each variant for FcγRIIb, and the value obtained by dividing the KD value of each variant for FcγRIIaH by the KD value of each variant for FcγRIIb. KD(IIb) of the parent polypeptide/KD(IIb) of the altered polypeptide refers to a value obtained by dividing the KD value of the parent polypeptide for FcγRIIb by the KD value of each variant for FcγRIIb.
as §2

Row | Kd [µM] | Binder
3 | 20 | B3

Each binder was assayed against T2, FcγRIIa type R extracellular domain … (assay: SPR (Biacore), Reference Example 2).
Text: as §3, §2

Row | Kd [µM] | Binder
4 | 32 | B4
5 | 14 | B5
6 | 7.2 | B6
7 | 7.9 | B7
8 | 38 | B8
9 | 22 | B9
10 | 16 | B3
11 | 26 | B10
12 | 21 | B11

The binders below were run against T5, FcγRIIIa type V extracellular domain with C-terminal His tag (human, UniProt P08637 17-208) (assay: SPR (Biacore), antibody captured, FcgR analyte).
T5 construct: extracellular domain; also called FcIIIaV; FcgRIIIaV; not shown: His tag at the C terminus
Text: as §1, §2

T5 sequence (P08637 17-208 F176V): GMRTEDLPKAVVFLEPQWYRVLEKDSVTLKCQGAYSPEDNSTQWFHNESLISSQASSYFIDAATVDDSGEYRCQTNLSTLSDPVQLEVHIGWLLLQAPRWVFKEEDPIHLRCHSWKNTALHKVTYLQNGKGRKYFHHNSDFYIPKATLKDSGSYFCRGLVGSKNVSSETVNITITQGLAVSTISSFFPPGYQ

Row | Kd [µM] | Binder
13 | 6.7 | B12
14 | 7 | B13
15 | 5.1 | B14
16 | 5 | B15
17 | 50 | B16
18 | 6.9 | B17
19 | 6.8 | B18
20 | 3.1 | B19

Biological target: T3, FcγRIIa type R extracellular domain …
Experiment: SPR (Biacore), antibody captured, FcgR analyte
Text: as §1, §2

Row | Kd [µM] | Binder
21 | 1.2 | B13
22 | 0.03 | B14
23 | 0.05 | B15
24 | 8 | B16
25 | 3.1 | B17
26 | 3.5 | B18
27 | 0.91 | B19

What follows are binders tested against T4, FcγRIIb extracellular domain with … (assay: SPR (Biacore), antibody captured, FcgR analyte).
Text: as §1, §2

Row | Kd [µM] | Binder
28 | 50 | B19
